In this assay the target is T1, rat GLP-1 receptor (Rattus norvegicus, UniProt P32301).
T1 construct: expressed in transfected cells; host or cells: CHO (CHO-GLP-1R)
T1 sequence (P32301 22-463): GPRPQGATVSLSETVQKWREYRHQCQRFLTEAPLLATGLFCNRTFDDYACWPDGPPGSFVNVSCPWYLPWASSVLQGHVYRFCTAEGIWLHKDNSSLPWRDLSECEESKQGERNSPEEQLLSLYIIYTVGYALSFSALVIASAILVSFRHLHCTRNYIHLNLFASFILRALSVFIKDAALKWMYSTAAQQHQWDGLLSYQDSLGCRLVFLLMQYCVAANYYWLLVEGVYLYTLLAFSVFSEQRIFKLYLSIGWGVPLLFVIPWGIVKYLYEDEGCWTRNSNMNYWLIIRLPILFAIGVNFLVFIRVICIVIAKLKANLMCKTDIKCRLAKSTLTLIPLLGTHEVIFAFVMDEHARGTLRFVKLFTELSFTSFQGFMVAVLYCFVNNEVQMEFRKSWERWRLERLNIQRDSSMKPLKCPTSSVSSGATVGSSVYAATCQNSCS
Briefly: cAMP potency assay in CHO cells transfected with the rat GLP-1 receptor (CHO-GLP-1R). The class given is cell-based. The conditions noted are these: cAMP accumulation in CHO-GLP-1R cells. The protocol: 96-well tissue culture plates were seeded with CHO-GLP-1R cells and cultured overnight. The following day, the cells were rinsed with Krebs-Ringer buffer (KRB) and incubated in KRB containing the phosphodiesterase inhibitor 3-isobutyl-1-methylxanthine (IBMX, 2 mM) to inhibit intracellular enzymes that process cAMP. Serial dilutions of test compounds and controls were prepared in KRB/IBMX and triplicate wells of cells were inoculated with samples and controls. After incubation, individual sample lysates were then assayed to measure the increase in intracellular cAMP levels using a competition-based fluorescent immunoassay (CatchPoint® cAMP Fluorescent Assay Kit, Molecular Devices Corp., Sunnyvale, Calif.).
For orientation: Cyclic AMP is a second messenger, typically raised through Gs and lowered through Gi signalling.

We go through 2 molecules from patent US8158579B2, “Fusion protein of an exendin to modified transferrin” (BioRexis Pharmaceutical Corporation, priority 2006, dated 2012).

B1: pREX0659: exendin-4(1-30) fragment fused via (PEAPTD)2 linker to mTf (SEQ ID NO: 17) (protein)
chain: HGEGTFTSDLSKQMEEEAVRLFIEWLKNGGPEAPTDPEAPTDVPDKTVRWCAVSEHEATKCQSFRDHMKSVIPSDGPSVACVKKASYLDCIRAIAANEADAVTLDAGLVYDAYLAPNNLKPVVAEFYGSKEDPQTFYYAVAVVKKDSGFQMNQLRGKKSCHTGLGRSAGWNIPIGLLYCDLPEPRKPLEKAVANFFSGSCAPCADGTDFPQLCQLCPGCGCSTLNQYFGYSGAFKCLKDGAGDVAFVKHSTIFENLANKADRDQYELLCLDNTRKPVDEYKDCHLAQVPSHTVVARSMGGKEDLIWELLNQAQEHFGKDKSKEFQLFSSPHGKDLLFKDSAHGFLKVPPRMDAKMYLGYEYVTAIRNLREGTCPEAPTDECKPVKWCALSHHERLKCDEWSVNSVGKIECVSAETTEDCIAKIMNGEADAMSLDGGFVYIAGKCGLVPVLAENYNKADNCEDTPEAGYFAVAVVKKSASDLTWDNLKGKKSCHTAVGRTAGWNIPMGLLYNKINHCRFDEFFSEGCAPGSKKDSSLCKLCMGSGLNLCEPNNKEGYYGYTGAFRCLVEKGDVAFVKHQTVPQNTGGKNPDPWAKNLNEKDYELLCLDGTRKPVEEYANCHLARAPNHAVVTRKDKEACVHKILRQQQHLFGSNVADCSGNFCLFRSETKDLLFRDDTVCLAKLHDRNTYEKYLGEEYVKAVGNLRKCSTSSLLEACTFRRP
Consider B1, for which the EC50 (as a rule, the midpoint of the concentration-response curve) is 0.85 nM.

B2: pREX0658: exendin-4(1-31) fragment fused via (PEAPTD)2 linker to mTf (SEQ ID NO: 17) (protein)
chain: HGEGTFTSDLSKQMEEEAVRLFIEWLKNGGPPEAPTDPEAPTDVPDKTVRWCAVSEHEATKCQSFRDHMKSVIPSDGPSVACVKKASYLDCIRAIAANEADAVTLDAGLVYDAYLAPNNLKPVVAEFYGSKEDPQTFYYAVAVVKKDSGFQMNQLRGKKSCHTGLGRSAGWNIPIGLLYCDLPEPRKPLEKAVANFFSGSCAPCADGTDFPQLCQLCPGCGCSTLNQYFGYSGAFKCLKDGAGDVAFVKHSTIFENLANKADRDQYELLCLDNTRKPVDEYKDCHLAQVPSHTVVARSMGGKEDLIWELLNQAQEHFGKDKSKEFQLFSSPHGKDLLFKDSAHGFLKVPPRMDAKMYLGYEYVTAIRNLREGTCPEAPTDECKPVKWCALSHHERLKCDEWSVNSVGKIECVSAETTEDCIAKIMNGEADAMSLDGGFVYIAGKCGLVPVLAENYNKADNCEDTPEAGYFAVAVVKKSASDLTWDNLKGKKSCHTAVGRTAGWNIPMGLLYNKINHCRFDEFFSEGCAPGSKKDSSLCKLCMGSGLNLCEPNNKEGYYGYTGAFRCLVEKGDVAFVKHQTVPQNTGGKNPDPWAKNLNEKDYELLCLDGTRKPVEEYANCHLARAPNHAVVTRKDKEACVHKILRQQQHLFGSNVADCSGNFCLFRSETKDLLFRDDTVCLAKLHDRNTYEKYLGEEYVKAVGNLRKCSTSSLLEACTFRRP
With B2, the EC50 turned out to be 0.33 nM. Compared with the last molecule, the EC50 is about 2.6-fold lower.
